Data reported in article PMC12328215, “Interactions between TTYH2 and APOE facilitate endosomal lipid transfer” (Nature, 2025).

B1: sybody Sb1^TTYH2 (VHH)
VHH: QVQLVESGGGLVQAGGSLRLSCTASGFPVAFAQMKWYRQAPGKEREWVAAIWSMGNETTYADSVKGRFTISRDNAKNTVYLQMNSLKPEDTAVYYCAVEVGYGYHGQGTQVTVS
notes: synthetic nanobody from the concave library (short CDR3); also called Syb1; source: E. coli MC1061, periplasmic expression, purified (Ni-NTA, SEC)
B2: sybody Sb2^TTYH2 (VHH)
VHH: QVQLVESGGGLVQAGGSLRLSCAASGFPVTNDSMHWYRQAPGKEREWVAAIASQGRGTAYADSVKGRFTISRDNAKSTVYLQMNSLKPEDTAVYYCNVKDYGYDLQWYDYWGQGTQVTVS
notes: synthetic nanobody from the loop library (medium CDR3); For force spectroscopy immobilised on glass by the protocol used for APOE, or added soluble at 20–50 µM; also called Syb2; unlabelled Sb2; source: E. coli MC1061, periplasmic expression, purified (Ni-NTA, SEC)

Target: T1, human TTYH3 (Tweety homologue 3), detergent-solubilized and purified (human, UniProt Q9C0H2)
T1 construct: Tweety homologue 3 (TTYH3), human; gene (Genscript) cloned into the vector pcDXC3MS; Homodimer; source: HEK293 GNTI− cells, transiently transfected, purified in GDN (Strep-Tactin, SEC)
Experiment: SEC; TTYH2 or TTYH3 with a 1.6 molar excess of sybody on a Superose 6 Increase 5/150 GL column; sybody in the TTYH peak fractions detected by SDS–PAGE
Settings: both partners purified

T1 sequence (Q9C0H2 2-523): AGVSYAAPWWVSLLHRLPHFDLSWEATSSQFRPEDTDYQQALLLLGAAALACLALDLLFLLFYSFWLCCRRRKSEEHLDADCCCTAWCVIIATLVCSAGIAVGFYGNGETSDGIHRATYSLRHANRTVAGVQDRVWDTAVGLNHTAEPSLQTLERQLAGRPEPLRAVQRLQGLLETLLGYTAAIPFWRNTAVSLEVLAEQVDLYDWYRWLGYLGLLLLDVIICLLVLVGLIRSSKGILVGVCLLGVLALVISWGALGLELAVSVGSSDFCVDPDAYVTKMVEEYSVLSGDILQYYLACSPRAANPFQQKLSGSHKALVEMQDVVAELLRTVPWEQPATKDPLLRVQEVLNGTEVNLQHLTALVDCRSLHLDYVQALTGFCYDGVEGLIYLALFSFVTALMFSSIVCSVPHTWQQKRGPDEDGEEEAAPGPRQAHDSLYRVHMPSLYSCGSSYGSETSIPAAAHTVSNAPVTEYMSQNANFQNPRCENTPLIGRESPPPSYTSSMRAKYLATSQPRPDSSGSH

Row | Binder | binding result
1 | B1 | no binding
2 | B2 | no binding
